The values that follow come from PMC10951265.

In general, stoichiometry N refers to a count of units in the complex or per binding partner.

The target of assay [1] is PorXFj (Fjoh_2906), the Flavobacterium johnsoniae PorX homolog, purified, not phosphorylated (Flavobacterium johnsoniae) (UniProt A5FFU4). Kind of assay: SEC-MALS; PorXFj 1.6 mg/mL incubated 1 h at RT with 100 uM ZnCl2; column equilibrated in PBS only. (In general: Size exclusion chromatography separates by hydrodynamic size, large species first.)
Assay [2] shares this target. Kind of assay: SEC; PorXFj 1.6 mg/mL incubated 1 h at RT with 100 uM MnCl2; Superdex 200 Increase 10/300 GL in PBS with 100 uM MnCl2.
Assay [3] shares this target. Kind of assay: SEC; PorXFj 1.6 mg/mL incubated 1 h at RT with 100 uM CuCl2; Superdex 200 Increase 10/300 GL in PBS with 100 uM CuCl2.
Assay [4] has the same target. Kind of assay: SEC; PorXFj 1.6 mg/mL incubated 1 h at RT with 100 uM ZnCl2; Superdex 200 Increase 10/300 GL in PBS with 100 uM ZnCl2.
Assay [5] concerns the target phosphorylated PorXFj (PorXFj incubated with acetyl phosphate and MgCl2) (Flavobacterium johnsoniae) (UniProt A5FFU4). Description: SEC-MALS; PorXFj 1.6 mg/mL incubated 1 h at RT with 20 mM AcP + 10 mM MgCl2; Superdex 200 Increase 10/300 GL in PBS.

Regarding “PorXFj (Fjoh_2906), the Flavobacterium johnsoniae PorX homolog, purified, not phosphorylated (from UniProt A5FFU4 1-517) (natural protein)”, the stoichiometry N in assay [1], in assay [2], in assay [3] and in assay [4] was 2 each time.

Consider “phosphorylated PorXFj (PorXFj incubated with acetyl phosphate and MgCl2) (from UniProt A5FFU4 1-517) (natural protein)”, for which the stoichiometry N in assay [5] is 2.
